“Also recorded” adds a separate entry of the source.
B1: UPF1: protein involved in nonsense-mediated mRNA decay (NMD), expressed in neurons; amino acid sequence SEQ ID NO: 2 (protein, listed as Homo sapiens)
chain: MSVEAYGPSSQTLTFLDTEEAELLGADTQGSEFEFTDFTLPSQTQTPPGGPGGPGGGGAGSPGGAGAGAAAGQLDAQVGPEGILQNGAVDDSVAKTSQLLAELNFEEDEEDTYYTKDLPIHACSYCGIHDPACVVYCNTSKKWFCNGRGNTSGSHIVNHLVRAKCKEVTLHKDGPLGETVLECYNCGCRNVFLLGFIPAKADSVVVLLCRQPCASQSSLKDINWDSSQWQPLIQDRCFLSWLVKIPSEQEQLRARQITAQQINKLEELWKENPSATLEDLEKPGVDEEPQHVLLRYEDAYQYQNIFGPLVKLEADYDKKLKESQTQDNITVRWDLGLNKKRIAYFTLPKTDSDMRLMQGDEICLRYKGDLAPLWKGIGHVIKVPDNYGDEIAIELRSSVGAPVEVTHNFQVDFVWKSTSFDRMQSALKTFAVDETSVSGYIYHKLLGHEVEDVITKCQLPKRFTAQGLPDLNHSQVYAVKTVLQRPLSLIQGPPGTGKTVTSATIVYHLARQGNGPVLVCAPSNIAVDQLTEKIHQTGLKVVRLCAKSREAIDSPVSFLALHNQIRNMDSMPELQKLQQLKDETGELSSADEKRYRALKRTAERELLMNADVICCTCVGAGDPRLAKMQFRSILIDESTQATEPECMVPVVLGAKQLILVGDHCQLGPVVMCKKAAKAGLSQSLFERLVVLGIRPIRLQVQYRMHPALSAFPSNIFYEGSLQNGVTAADRVKKGFDFQWPQPDKPMFFYVTQGQEEIASSGTSYLNRTEAANVEKITTKLLKAGAKPDQIGIITPYEGQRSYLVQYMQFSGSLHTKLYQEVEIASVDAFQGREKDFIILSCVRANEHQGIGFLNDPRRLNVALTRARYGVIIVGNPKALSKQPLWNHLLNYYKEQKVLVEGPLNNLRESLMQFSKPRKLVNTINPGARFMTTAMYDAREAIIPGSVYDRSSQGRPSSMYFQTHDQIGMISAGPSHVAAMNIPIPFNLVMPPMPPPGYFGQANGPAAGRGTPKGKTGRGGRQKNRFGLPGPSQTNLPNSQASQDVASQPFSQGALTQGYISMSQPSQMSQPGLSQPELSQDSYLGDEFKSQIDVALSQDSTYQGERAYQHGGVTGLSQY

Tests used:
ALS patients = conditions: some ALS patients; cited from earlier work
[1] = tested on: ALS-associated mutants of SOD1; assay: Rescue of toxicity of ALS-associated mutants of SOD1 by UPF1 expression; format: cell-based
wild type neurons = assay: Kaplan-Meyer survival of wild type motor neurons expressing UPF1; format: cell-based, mice or human; conditions: UPF1 expression in motor neurons; FIG. 1A
Description: (§1) To test the efficacy of UPF1 in reducing TDP-43 or FUS-mediated cytotoxicity in neurons, UPF1 was expressed in motor neurons expressing disease-associated FUS or TDP-43. Motor neurons were either isolated from mice or created from fibroblasts taken from human ALS patients using iPS cell techniques (described in Yamanaka et al., Cell 126:663-676 (2006)). FUS or TDP-43 were tagged with EGFP (Enhanced Green Fluorescent Protein) and expressed in motor neurons, which were visualized by fluorescent microscopy using mApple.
(§2) The motor neurons died within a few days of FUS or TDP-43 expression due to toxicity of these ALS-related proteins. UPF1 was expressed in the motor neurons and Kaplan-Meyer survival curves were determined.

TDP-43 = assay: Cytoplasmic level of TDP-43 in neuronal cells expressing UPF1; format: cell-based; conditions: expression of UPF1
Description: (§3) The present invention encompasses the surprising finding that NMD agents are useful, among other things, in the treatment or prevention (i.e., delay of onset) of ALS. […] Accordingly, in some embodiments, an NMD agent is provided to the central nervous system of a subject, e.g., a subject suffering from or susceptible to ALS. In some embodiments, an NMD agent is provided to one or more of target cells or tissues of brain, spinal cord, and/or peripheral organs. In some embodiments, target cells or tissues include those cells or tissues that display a disease-associated pathology, symptom, or feature. In some embodiments, target cells or tissues include those cells or tissues in which TDP-43 or FUS/TLS is expressed at an elevated level, e.g., cells in which TDP-43 or FUS/TLS is expressed at an elevated level in the cytoplasm of the cells. As used herein, a target tissue may be a brain target tissue, a spinal cord target tissue and/or a peripheral target tissue.

[2] = tested on: ALS-associated TDP-43 mutations in yeast; assay: Yeast model of ALS: suppression of cytotoxicity of TDP-43 mutations; format: cell-based
[3] = tested on: motor neurons expressing TDP-43; assay: Kaplan-Meyer survival of motor neurons expressing disease-associated TDP-43 and UPF1; format: cell-based, mice or human; conditions: UPF1 expressed in motor neurons expressing EGFP-tagged TDP-43; FIG. 1B
Description: as §1, §2

FUS/TLS = assay: Cytoplasmic level of FUS/TLS in neuronal cells expressing UPF1; format: cell-based; conditions: expression of UPF1
Description: as §3

[4] = tested on: motor neurons expressing FUS; assay: Survival of motor neurons expressing disease-associated FUS and UPF1; format: cell-based, mice or human; conditions: UPF1 expressed in cells expressing FUS; data not shown
Description: as §1, §2

[5] = tested on: FUS/TLS toxicity in yeast; conditions: yeast model of ALS; Ju et al., PLoS Biol. 2011; cited from earlier work

| Molecule | extension of lifespan of ALS patients (ALS patients) | rescue of toxicity of ALS-associated mutants of SOD1 [1] | effect on survival of wild type neurons (wild type neurons) | cytoplasmic levels of TDP-43 in the neuronal cells (TDP-43) | cytotoxicity of ALS-associated TDP-43 mutations in yeast [2] | toxicity of TDP-43 in motor neurons [3] | cytoplasmic levels of FUS/TLS in the neuronal cells (FUS/TLS) | toxicity of FUS in motor neurons [4] | toxicity of FUS/TLS in yeast [5] |
| --- | --- | --- | --- | --- | --- | --- | --- | --- | --- |
| Nc1nc2ccc(OC(F)(F)F)cc2s1 [riluzole] | about 3 months |  |  |  |  |  |  |  |  |
| B1 |  | unable to rescue | no effect | no effect | able to suppress the cytotoxicity | reduces cellular toxicity; also recorded: completely eliminate the toxicity of TDP-43 in a dose-dependent manner | no effect | reduces cellular toxicity | able to rescue toxicity; also recorded: suppressed toxicity |

From patent publication US10533038B2, “Methods of reducing TDP-43-mediated neuronal cytotoxicity in amyotrophic lateral sclerosis by a UPF1 polypeptide or polynucleotide” (Brandeis University, priority 2012, dated 2020)
